Assay results taken from article PMC9089689 (ACS Omega, 2022).
Numbering of substitutions follows the chain as printed. Names and notes keep the numbering of the source.

T1: Hup-WT (histone-like DNA binding protein HU) (Helicobacter pylori, UniProt O25506 1-94)
T1 sequence: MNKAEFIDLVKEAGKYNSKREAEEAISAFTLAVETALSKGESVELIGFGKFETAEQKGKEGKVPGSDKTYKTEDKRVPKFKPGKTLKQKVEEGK

B1: Hup-P64A protein (natural protein, Helicobacter pylori, UniProt O25506 1-94, looked up)
chain: T1 sequence with P64A
B2: Helicobacter pylori histone-like DNA binding protein (Hup), wild type (natural protein, UniProt O25506 1-94, looked up)
chain: T1 sequence

Columns and labels:
[1] = target: T1, Hup-WT (histone-like DNA binding …); assay: Tyr fluorescence quenching
[2] = target: the molecule itself; assay: NMR 1H-15N HSQC
[3] = target: the molecule itself; assay: SEC

Binder	Kd [1]	intensity ratio [dimer:monomer] [2]	stoichiometry N [3]
TTTTTTTTTTCGAAGAAAAAAAAAA (structured_DNA) [hp-DNA (25-base A/T-rich hairpin)]	500 ± 50 nM		
B1		~1.5	2
B2			2
